Source: patent US20060263802A1 (CRUCELL HOLLAND B V, published 2006)

Legend:
Assay in all cases: PEPSCAN ELISA, looped peptide, antibody 10 µg/ml
[1] = target: looped/cyclic peptide … (rabies virus strain ERA)
[2] = target: looped/cyclic peptide … (rabies virus strain ERA); remark: listed apart in the source
[3] = target: looped/cyclic peptide … (rabies virus strain ERA); remark: listed apart in the source
[4] = target: looped/cyclic peptide … (rabies virus strain ERA); remark: listed apart in the source
[5] = target: looped/cyclic peptide … (rabies virus strain ERA); remark: listed apart in the source
[6] = target: looped/cyclic peptide […] (rabies virus strain ERA)
[7] = target: looped/cyclic peptide … (rabies virus strain ERA); remark: listed apart in the source
[8] = target: looped/cyclic peptide … (rabies virus strain ERA); remark: listed apart in the source
[9] = target: looped/cyclic peptide … (rabies virus strain ERA); remark: listed apart in the source
[10] = target: looped/cyclic peptide … (rabies virus strain ERA); remark: listed apart in the source
[11] = target: looped/cyclic peptide … (rabies virus strain ERA); remark: listed apart in the source
[12] = target: looped/cyclic peptide … (rabies virus strain ERA); remark: listed apart in the source
[13] = target: looped/cyclic peptide … (rabies virus strain ERA); remark: listed apart in the source
[14] = target: looped/cyclic peptide … (rabies virus strain ERA); remark: listed apart in the source
[15] = target: looped/cyclic peptide … (rabies virus strain ERA); remark: listed apart in the source
[16] = target: looped/cyclic peptide … (rabies virus strain ERA); remark: listed apart in the source
[17] = target: looped/cyclic peptide … (rabies virus strain ERA); remark: listed apart in the source
[18] = target: looped/cyclic peptide … (rabies virus strain ERA); remark: listed apart in the source
[19] = target: looped/cyclic peptide … (rabies virus strain ERA); remark: listed apart in the source
[20] = target: looped/cyclic peptide … (rabies virus strain ERA); remark: listed apart in the source
[21] = target: looped/cyclic peptide … (rabies virus strain ERA); remark: listed apart in the source
[22] = target: looped/cyclic peptide … (rabies virus strain ERA); remark: listed apart in the source
[23] = target: looped/cyclic peptide … (rabies virus strain ERA); remark: listed apart in the source
[24] = target: looped/cyclic peptide … (rabies virus strain ERA); remark: listed apart in the source
[25] = target: looped/cyclic peptide … (rabies virus strain ERA); remark: listed apart in the source
[26] = target: looped/cyclic peptide … (rabies virus strain ERA); remark: listed apart in the source
[27] = target: looped/cyclic peptide … (rabies virus strain ERA); remark: listed apart in the source
[28] = target: looped/cyclic peptide … (rabies virus strain ERA); remark: listed apart in the source
[29] = target: looped/cyclic peptide … (rabies virus strain ERA); remark: listed apart in the source
[30] = target: looped/cyclic peptide … (rabies virus strain ERA); remark: listed apart in the source
[31] = target: looped/cyclic peptide … (rabies virus strain ERA); remark: listed apart in the source
[32] = target: looped/cyclic peptide … (rabies virus strain ERA); remark: listed apart in the source
[33] = target: looped/cyclic peptide … (rabies virus strain ERA); remark: listed apart in the source
[34] = target: looped/cyclic peptide … (rabies virus strain ERA); remark: listed apart in the source
[35] = target: looped/cyclic peptide … (rabies virus strain ERA); remark: listed apart in the source
[36] = target: looped/cyclic peptide … (rabies virus strain ERA); remark: listed apart in the source
[37] = target: looped/cyclic peptide … (rabies virus strain ERA); remark: listed apart in the source
[38] = target: looped/cyclic peptide … (rabies virus strain ERA); remark: listed apart in the source
[39] = target: looped/cyclic peptide … (rabies virus strain ERA); remark: listed apart in the source
[40] = target: looped/cyclic peptide … (rabies virus strain ERA); remark: listed apart in the source
[41] = target: looped/cyclic peptide … (rabies virus strain ERA); remark: listed apart in the source
[42] = target: looped/cyclic peptide … (rabies virus strain ERA); remark: listed apart in the source
[43] = target: looped/cyclic peptide … (rabies virus strain ERA); remark: listed apart in the source
[44] = target: looped/cyclic peptide … (rabies virus strain ERA); remark: listed apart in the source
[45] = target: looped/cyclic peptide … (rabies virus strain ERA); remark: listed apart in the source
[46] = target: looped/cyclic peptide … (rabies virus strain ERA); remark: listed apart in the source
[47] = target: looped/cyclic peptide … (rabies virus strain ERA); remark: listed apart in the source
[48] = target: looped/cyclic peptide … (rabies virus strain ERA); remark: listed apart in the source
[49] = target: looped/cyclic peptide … (rabies virus strain ERA); remark: listed apart in the source
[50] = target: looped/cyclic peptide … (rabies virus strain ERA); remark: listed apart in the source
[51] = target: looped/cyclic peptide … (rabies virus strain ERA); remark: listed apart in the source
[52] = target: looped/cyclic peptide DIHHLSCPNNLVVED (rabies virus strain ERA)
[53] = target: looped/cyclic peptide … (rabies virus strain ERA); remark: listed apart in the source
[54] = target: looped/cyclic peptide … (rabies virus strain ERA); remark: listed apart in the source
[55] = target: looped/cyclic peptide … (rabies virus strain ERA); remark: listed apart in the source
[56] = target: looped/cyclic peptide … (rabies virus strain ERA); remark: listed apart in the source
[57] = target: looped/cyclic peptide … (rabies virus strain ERA); remark: listed apart in the source
[58] = target: looped/cyclic peptide … (rabies virus strain ERA); remark: listed apart in the source
[59] = target: looped/cyclic peptide … (rabies virus strain ERA); remark: listed apart in the source
[60] = target: looped/cyclic peptide … (rabies virus strain ERA); remark: listed apart in the source
[61] = target: looped/cyclic peptide … (rabies virus strain ERA); remark: listed apart in the source
[62] = target: looped/cyclic peptide … (rabies virus strain ERA); remark: listed apart in the source
[63] = target: looped/cyclic peptide … (rabies virus strain ERA); remark: listed apart in the source
[64] = target: looped/cyclic peptide … (rabies virus strain ERA); remark: listed apart in the source
[65] = target: looped/cyclic peptide … (rabies virus strain ERA); remark: listed apart in the source
[66] = target: looped/cyclic peptide … (rabies virus strain ERA); remark: listed apart in the source
[67] = target: looped/cyclic peptide … (rabies virus strain ERA); remark: listed apart in the source
[68] = target: looped/cyclic peptide … (rabies virus strain ERA); remark: listed apart in the source
[69] = target: looped/cyclic peptide … (rabies virus strain ERA); remark: listed apart in the source
[70] = target: looped/cyclic peptide … (rabies virus strain ERA); remark: listed apart in the source
[71] = target: looped/cyclic peptide … (rabies virus strain ERA); remark: listed apart in the source
[72] = target: looped/cyclic peptide … (rabies virus strain ERA); remark: listed apart in the source
[73] = target: looped/cyclic peptide … (rabies virus strain ERA); remark: listed apart in the source
[74] = target: looped/cyclic peptide … (rabies virus strain ERA); remark: listed apart in the source
[75] = target: looped/cyclic peptide … (rabies virus strain ERA); remark: listed apart in the source

B1: human monoclonal antibody CRJB (antibody, V domains shown)
VH: QITLKETGPTLVKPTQTLTLTCTFSGFSLSTSGVGVGWIRQPPGKALEWVTLIYWDDDKRYSPSLENRVTIRKDTSKNQVALTMTNMDPLDTGTYYCAHRQHISSFPWFDSWGQGTLVTVSS
VL: SYVLTQPPSVSVAPGKTARINCGGNNIEYRSVHWYQQKSGQAPVAVIYDNSDRPSGIPERFSGSKSGNTATLTISRVEAGDEADYYCQVWDISSDVVFGGGTKLTVLG
- OD value [1]: 112 OD
- OD value [2]: 83 OD
- OD value [3]: 80 OD
- OD value [4]: 83 OD
- OD value [5]: 93 OD
- OD value [6]: 71 OD
- OD value [7]: 74 OD
- OD value [8]: 90 OD
- OD value [9]: 99 OD
- OD value [10]: 93 OD
- OD value [11]: 65 OD
- OD value [12]: 85 OD
- OD value [13]: 78 OD
- OD value [14]: 54 OD
- OD value [15]: 96 OD
- OD value [16]: 99 OD
- OD value [17]: 68 OD
- OD value [18]: 83 OD
- OD value [19]: 73 OD
- OD value [20]: 60 OD
- OD value [21]: 49 OD
- OD value [22]: 93 OD
- OD value [23]: 93 OD
- OD value [24]: 51 OD
- OD value [25]: 66 OD
- OD value [26]: 71 OD
- OD value [27]: 82 OD
- OD value [28]: 62 OD
- OD value [29]: 63 OD
- OD value [30]: 82 OD
- OD value [31]: 86 OD
- OD value [32]: 101 OD
- OD value [33]: 83 OD
- OD value [34]: 60 OD
- OD value [35]: 45 OD
- OD value [36]: 78 OD
- OD value [37]: 85 OD
- OD value [38]: 73 OD
- OD value [39]: 74 OD
- OD value [40]: 92 OD
- OD value [41]: 85 OD
- OD value [42]: 80 OD
- OD value [43]: 63 OD
- OD value [44]: 72 OD
- OD value [45]: 71 OD
- OD value [46]: 75 OD
- OD value [47]: 92 OD
- OD value [48]: 80 OD
- OD value [49]: 99 OD
- OD value [50]: 61 OD
- OD value [51]: 77 OD
- OD value [52]: 48 OD
- OD value [53]: 98 OD
- OD value [54]: 88 OD
- OD value [55]: 75 OD
- OD value [56]: 69 OD
- OD value [57]: 46 OD
- OD value [58]: 92 OD
- OD value [59]: 58 OD
- OD value [60]: 69 OD
- OD value [61]: 76 OD
- OD value [62]: 92 OD
- OD value [63]: 68 OD
- OD value [64]: 60 OD
- OD value [65]: 90 OD
- OD value [66]: 64 OD
- OD value [67]: 104 OD
- OD value [68]: 64 OD
- OD value [69]: 71 OD
- OD value [70]: 107 OD
- OD value [71]: 71 OD
- OD value [72]: 76 OD
- OD value [73]: 78 OD
- OD value [74]: 65 OD
- OD value [75]: 78 OD
